Experimental data from the Immune Epitope Database (IEDB).

Key:
HLA-A*02:11 = assay: IEDB peptide-MHC binding, purified MHC/competitive/fluorescence; filed as Kd, often an IC50 or EC50 that approximates it; ≥ and ≤ were set here for values at or beyond the usual limits of such assays
HLA-A*02:12 = assay: as above
HLA-A*69:01 [1] = assay: as above
HLA-A*02:06 = assay: as above
HLA-A*02:19 = assay: as above
HLA-A*02:03 = assay: as above
HLA-A*02:01 [2] = assay: as above
HLA-B*58:01 = assay: IEDB peptide-MHC binding, purified MHC/direct/fluorescence; filed as Kd, often an IC50 or EC50 that approximates it; ≥ and ≤ were set here for values at or beyond the usual limits of such assays
HLA-B*27:05 = assay: as above
HLA-A*01:01 = assay: as above
HLA-A*69:01 [3] = assay: as above
HLA-B*08:01 = assay: as above
HLA-A*24:03 = assay: as above
HLA-A*31:01 = assay: as above
HLA-A*26:01 [4] = assay: as above
HLA-A*11:01 = assay: as above
HLA-A*03:01 [5] = assay: as above
HLA-B*40:01 = assay: as above
HLA-A*30:01 = assay: as above
HLA-B*15:01 [6] = assay: as above
HLA-A*02:01 [7] = assay: as above
HLA-B*48:01 = assay: as above; details: source organism: Escherichia coli O157:H7
HLA-B*57:01 [8] = assay: as above; details: source organism: Escherichia coli O157:H7
HLA-B*18:01 [9] = assay: as above; details: source organism: Escherichia coli O157:H7
HLA-B*46:01 [10] = assay: as above; details: source organism: Escherichia coli O157:H7
HLA-B*15:17 [11] = assay: as above; details: source organism: Escherichia coli O157:H7
HLA-B*07:02 = assay: as above
HLA-A*68:02 [12] = assay: as above; details: source organism: Escherichia coli O157:H7
HLA-B*18:01 [13] = assay: IEDB peptide-MHC binding, purified MHC/competitive/fluorescence; filed as Kd, often an IC50 or EC50 that approximates it; ≥ and ≤ were set here for values at or beyond the usual limits of such assays
HLA-B*46:01 [14] = assay: as above
HLA-A*29:02 = assay: as above
HLA-B*39:01 = assay: as above
HLA-A*68:02 [15] = assay: as above
HLA-A*02:16 = assay: as above
HLA-A*26:01 [16] = assay: as above
HLA-B*44:02 = assay: IEDB peptide-MHC binding, purified MHC/direct/fluorescence; filed as Kd, often an IC50 or EC50 that approximates it; ≥ and ≤ were set here for values at or beyond the usual limits of such assays; details: source organism: Rickettsia prowazekii
HLA-B*57:01 [17] = assay: IEDB peptide-MHC binding, purified MHC/competitive/fluorescence; filed as Kd, often an IC50 or EC50 that approximates it; ≥ and ≤ were set here for values at or beyond the usual limits of such assays; details: source organism: Cryptosporidium parvum Iowa II
HLA-B*27:03 = assay: as above; details: source organism: Cryptosporidium parvum Iowa II
HLA-B*15:17 [18] = assay: as above; details: source organism: Cryptosporidium parvum Iowa II
HLA-B*51:01 = assay: as above; details: source organism: Cryptosporidium parvum Iowa II
HLA-A*03:01 [19] = assay: as above; details: source organism: Cryptosporidium parvum Iowa II
HLA-B*15:01 [20] = assay: as above; details: source organism: Cryptosporidium parvum Iowa II
[21] = source organism: Human immunodeficiency virus 1
[22] = source organism: Pasteurella multocida
[23] = source organism: Escherichia coli O157:H7
[24] = source organism: Vibrio cholerae O395
[25] = source organism: Escherichia coli O6
[26] = source organism: Escherichia coli 536
[27] = source organism: Yersinia pestis Nepal516
[28] = source organism: Rickettsia prowazekii
[29] = source organism: Cryptosporidium parvum Iowa II

NLGQHIYET
Kd (HLA-A*02:11; [21]): 0.0335 µM
Kd (HLA-A*02:12; [21]): 0.323 µM
Kd (HLA-A*69:01 [1]; [21]): ≥ 20 µM
Kd (HLA-A*02:06; [21]): 0.11 µM
Kd (HLA-A*02:19; [21]): 0.146 µM
Kd (HLA-A*02:03; [21]): 0.116 µM
Kd (HLA-A*02:01 [2]; [21]): 9 µM

NNKSRLVAF
Kd (HLA-B*58:01; [22]): ≥ 20 µM
Kd (HLA-B*27:05; [22]): ≥ 20 µM
Kd (HLA-A*01:01; [22]): ≥ 20 µM
Kd (HLA-A*69:01 [3]; [22]): ≥ 20 µM
Kd (HLA-B*08:01; [22]): 0.161 µM
Kd (HLA-A*24:03; [22]): ≥ 20 µM
Kd (HLA-A*31:01; [22]): ≥ 20 µM
Kd (HLA-A*26:01 [4]; [22]): ≥ 20 µM
Kd (HLA-A*11:01; [22]): ≥ 20 µM
Kd (HLA-A*03:01 [5]; [22]): ≥ 20 µM
Kd (HLA-B*40:01; [22]): ≥ 20 µM
Kd (HLA-A*30:01; [22]): 15.7 µM
Kd (HLA-B*15:01 [6]; [22]): ≥ 20 µM
Kd (HLA-A*02:01 [7]; [22]): ≥ 20 µM

RGRGVAIHR
Kd (HLA-A*02:06; source organism: Shigella dysenteriae 1012): 0.569 µM
Kd (HLA-B*48:01): ≥ 20 µM
Kd (HLA-B*57:01 [8]): ≥ 20 µM
Kd (HLA-B*58:01; [23]): ≥ 20 µM
Kd (HLA-B*27:05; [23]): ≥ 20 µM
Kd (HLA-A*01:01; [23]): ≥ 20 µM
Kd (HLA-B*18:01 [9]): ≥ 20 µM
Kd (HLA-B*46:01 [10]): ≥ 20 µM
Kd (HLA-B*15:17 [11]): ≥ 20 µM
Kd (HLA-B*07:02; [23]): ≥ 20 µM
Kd (HLA-A*68:02 [12]): ≥ 20 µM
Kd (HLA-A*31:01; [23]): 0.0066 µM
Kd (HLA-A*11:01; [23]): ≥ 20 µM
Kd (HLA-A*03:01 [5]; [23]): 0.487 µM
Kd (HLA-B*40:01; [23]): ≥ 20 µM
Kd (HLA-B*15:01 [6]; [23]): ≥ 20 µM
Kd (HLA-A*02:01 [7]; [23]): ≥ 20 µM

RVHFHRFMY
Kd (HLA-A*02:11; [24]): ≥ 20 µM
Kd (HLA-A*02:12; [24]): ≥ 20 µM
Kd (HLA-B*18:01 [13]; [24]): ≥ 20 µM
Kd (HLA-A*69:01 [1]; [24]): ≥ 20 µM
Kd (HLA-B*46:01 [14]; [24]): ≥ 20 µM
Kd (HLA-A*29:02; [24]): 0.0042 µM
Kd (HLA-B*39:01; [24]): ≥ 20 µM
Kd (HLA-A*68:02 [15]; [24]): ≥ 20 µM
Kd (HLA-A*02:16; [24]): ≥ 20 µM
Kd (HLA-A*02:19; [24]): ≥ 20 µM
Kd (HLA-A*26:01 [16]; [24]): ≥ 20 µM
Kd (HLA-A*02:03; [24]): ≥ 20 µM
Kd (HLA-A*02:01 [2]; [24]): ≥ 20 µM

RYICPVQQI
Kd (HLA-B*58:01; [25]): 9.09 µM
Kd (HLA-B*27:05; [26]): ≥ 20 µM
Kd (HLA-A*01:01; [26]): ≥ 20 µM
Kd (HLA-A*69:01 [3]; [26]): ≥ 20 µM
Kd (HLA-B*08:01; [26]): ≥ 20 µM
Kd (HLA-A*24:03; [25]): 0.00253 µM
Kd (HLA-B*07:02; [26]): ≥ 20 µM
Kd (HLA-A*26:01 [4]; [26]): ≥ 20 µM
Kd (HLA-A*03:01 [5]; [26]): ≥ 20 µM
Kd (HLA-B*40:01; [26]): ≥ 20 µM
Kd (HLA-A*30:01; [25]): 4.19 µM
Kd (HLA-B*15:01 [6]; [26]): ≥ 20 µM
Kd (HLA-A*02:01 [7]; [26]): ≥ 20 µM

SLTPSPLDL
Kd (HLA-A*02:06; [27]): 1.39 µM
Kd (HLA-A*02:01 [2]; [27]): 0.21 µM

VVNYDNSTK
Kd (HLA-B*58:01; [28]): ≥ 20 µM
Kd (HLA-B*27:05; [28]): ≥ 20 µM
Kd (HLA-A*01:01; [28]): ≥ 20 µM
Kd (HLA-A*69:01 [3]; [28]): ≥ 20 µM
Kd (HLA-B*08:01; [28]): ≥ 20 µM
Kd (HLA-A*24:03; [28]): ≥ 20 µM
Kd (HLA-B*07:02; [28]): ≥ 20 µM
Kd (HLA-B*44:02): ≥ 20 µM
Kd (HLA-A*31:01; [28]): 5.51 µM
Kd (HLA-A*26:01 [4]; [28]): ≥ 20 µM
Kd (HLA-A*11:01; [28]): 0.0451 µM
Kd (HLA-A*03:01 [5]; [28]): 0.445 µM
Kd (HLA-B*40:01; [28]): ≥ 20 µM
Kd (HLA-A*30:01; [28]): 1.74 µM
Kd (HLA-B*15:01 [6]; [28]): ≥ 20 µM
Kd (HLA-A*02:01 [7]; [28]): ≥ 20 µM

VYWENEVSI
Kd (HLA-B*57:01 [17]): ≥ 20 µM
Kd (HLA-A*02:11; [29]): ≥ 20 µM
Kd (HLA-A*02:12; [29]): 0.287 µM
Kd (HLA-B*27:03): ≥ 20 µM
Kd (HLA-B*18:01 [13]; [29]): ≥ 20 µM
Kd (HLA-A*69:01 [1]; [29]): ≥ 20 µM
Kd (HLA-B*46:01 [14]; [29]): ≥ 20 µM
Kd (HLA-A*29:02; [29]): ≥ 20 µM
Kd (HLA-B*15:17 [18]): ≥ 20 µM
Kd (HLA-B*39:01; [29]): ≥ 20 µM
Kd (HLA-A*68:02 [15]; [29]): ≥ 20 µM
Kd (HLA-B*51:01): ≥ 20 µM
Kd (HLA-A*02:16; [29]): ≥ 20 µM
Kd (HLA-A*02:19; [29]): ≥ 20 µM
Kd (HLA-A*26:01 [16]; [29]): ≥ 20 µM
Kd (HLA-A*03:01 [19]): ≥ 20 µM
Kd (HLA-B*15:01 [20]): ≥ 20 µM
Kd (HLA-A*02:03; [29]): ≥ 20 µM
Kd (HLA-A*02:01 [2]; [29]): ≥ 20 µM
